Reference: US20110262447A1 (RAMOT AT TEL AVIV UNIVERSITY, published 2011)
Substitutions are numbered along the chain they refer to.

B1: A4 scFv (scFv)
scFv: VQLLESGGGLVQPGGSLRLSCAASGFTFSGYWMHWVRQAPGKGLEWVSEISGSGDSTHYGDSVKGRFTISRDNSKNTLYLQMNSLRAEDTAVYYCARGRNGSLDYWGQGTLVTVSSGSAGGGGSGGGGSGGGGSDIVLTQPPSASGTPGQRVTISCTGNSSNIGAGYDVHWYQQLPGKAPKLLIYSNNQRPSGVPDRFSGSKSGTSASLAISGLRSEDEADYYCAAWDDSLSSVVFGGGTKLTV
B2: F2 scFv (scFv)
scFv: B1 scFv with T157S, N159T, G166D, S186D, Q189K, P195S, D229S, K241Q
B3: B6 scFv (scFv)
scFv: B1 scFv with N159S, S161A, S186D, N188D, Q189K, S230R, S233G, L242V

What was measured:
Streptavidin = Streptavidin (UniProt P22629 37-163); experiment: ELISA, group 6, Streptavidin
Sequence of Streptavidin (P22629 37-163 limits assumed): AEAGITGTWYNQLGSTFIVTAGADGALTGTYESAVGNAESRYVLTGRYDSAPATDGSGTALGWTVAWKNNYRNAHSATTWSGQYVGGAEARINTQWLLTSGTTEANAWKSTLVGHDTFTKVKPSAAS

Bovine Serum Albumin = target: T1, Bovine Serum Albumin (bovine, UniProt P02769 25-607); experiment: ELISA, group 5, BSA
T1 construct: also called BSA
T1 sequence (P02769 25-607 limits assumed): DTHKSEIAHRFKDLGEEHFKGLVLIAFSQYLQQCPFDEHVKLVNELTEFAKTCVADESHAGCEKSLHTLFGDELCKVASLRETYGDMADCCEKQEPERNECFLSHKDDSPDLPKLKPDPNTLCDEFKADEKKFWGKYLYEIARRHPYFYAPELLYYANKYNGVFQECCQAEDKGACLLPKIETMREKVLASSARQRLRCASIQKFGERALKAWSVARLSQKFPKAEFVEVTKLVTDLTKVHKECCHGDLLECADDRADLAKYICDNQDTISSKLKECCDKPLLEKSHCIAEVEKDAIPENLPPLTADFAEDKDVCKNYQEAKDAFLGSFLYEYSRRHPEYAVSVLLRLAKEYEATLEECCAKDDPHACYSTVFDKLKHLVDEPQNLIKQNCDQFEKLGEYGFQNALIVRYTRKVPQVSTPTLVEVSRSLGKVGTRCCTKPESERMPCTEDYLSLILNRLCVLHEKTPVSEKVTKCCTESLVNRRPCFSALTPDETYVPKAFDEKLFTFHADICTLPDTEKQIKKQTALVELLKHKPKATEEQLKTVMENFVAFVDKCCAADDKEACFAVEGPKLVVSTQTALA

[1] = target: multiple antigen peptide presenting amino acids 144-153 of the human prion protein (MAP-PrP […]) (human); experiment: ELISA, group 3, MAP-PrP

Row | Binder | binding result (Streptavidin) | binding result (Bovine Serum Albumin) | binding result [1]
1 | B1 | no binding (tested: not given on the sheet) | no binding (tested: not given on the sheet) | 
2 | B2 | no binding (tested: not given on the sheet) |  | no binding (tested: not given on the sheet)
3 | B3 | no binding (tested: not given on the sheet) | no binding (tested: not given on the sheet) | no binding (tested: not given on the sheet)
